Earlier results on one substance are cited in article PMC10105536.

The series deals with EGFR (Homo sapiens) (UniProt P00533).

Values joined by “and” are separate entries in the source; they are usually repeats but may differ in a detail not shown here. Equal entries are not always repeated.

As for EGF (from UniProt P01133), the Kd – broadly, the free concentration of one partner at which half of the binding sites on the other are occupied at equilibrium, for simple one-to-one binding – is 0.3 nM and 2 nM.
